The source of these data is patent US20080138335A1 (Kyowa Kirin, published 2008).

The target of this assay is T1, CD40 expressed on Ramos [ATCC] cells (UniProt P25942 21-277, limits assumed).
T1 construct: whole, on cells; Target of all flow cytometry and CD95 assays; endogenous CD40 on the Ramos cell line
As to the kind of experiment: flow cytometry (FACS) on Ramos cells expressing CD40, R-PE anti-human antibody.

T1 sequence (P25942 21-277 limits assumed): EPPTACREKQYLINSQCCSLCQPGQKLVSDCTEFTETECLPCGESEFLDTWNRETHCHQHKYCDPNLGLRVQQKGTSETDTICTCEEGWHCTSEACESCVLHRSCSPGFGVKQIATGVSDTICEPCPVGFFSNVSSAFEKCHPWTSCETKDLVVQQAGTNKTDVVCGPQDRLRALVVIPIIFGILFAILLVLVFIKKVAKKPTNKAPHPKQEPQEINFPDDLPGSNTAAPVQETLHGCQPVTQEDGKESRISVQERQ

B1: 4D11-G[3313] (antibody, V domains shown)
VH: QLQLQESGPGLLKPSETLSLTCTVSGGSISSPGYYGGWIRQPPGKGLEWIGSIYKSGSTYHNPSLKSRVTISVDTSKNQFSLKLSSVTAADTAVYYCTRPVVRYFGWFDPWGQGTLVTVSS
VL: AIQLTQSPSSLSASVGDRVTITCRASQGISSALAWYQQKPGKAPKLLIYDASNLESGVPSRFSGSGSGTDFTLTISSLQPEDFATYYCQQFNSYPTFGQGTKVEIK
notes: also called IgG[3/3/1/3]; N5KG3313; not shown: human IgG3 heavy chain constant region, CH1 and hinge domains (EU 118-237), from vector N5KG3; human IgG1 heavy chain constant region, CH2 domain (EU 238-340), from vector N5KG1 by way of N5KG3311; human IgG3 heavy chain constant region, CH3 domain (EU 341-446), from vector N5KG3
Consider B1, for which the binding result is on record as “binds”.

B2: 341-G [1/1/2/2] (antibody)
heavy: QVQLQQSGPGLVKPSQTLSLTCAISGDSVSSNSATWNWIRQSPSRDLEWLGRTYYRSKWYRDYVGSVKSRIIINPDTSNNQFSLQLNSVTPEDTAIYYCTRAQWLGGDYPYYYSMDVWGQGTTVTVSS
VL: EIVLTQSPATLSLSPGERATLSCRASQSVSSYLAWYQQKPGQAPRLLIYDASNRATGIPARFSGSGSGTDFTLTISSLEPEDFAVYYCQQRSNTFGPGTKVDIK
notes: also called IgG[1/1/2/2]; N5KG1122; not shown: human IgG1 heavy chain constant region, CH1 and hinge domains (EU 118-237), from vector N5KG1-Val Lark; human IgG2 heavy chain constant region, CH2 and CH3 domains (EU 238-446), from vector N5KG2
Take B2: the binding result is given as “binds”.

B3: 341-G [2/2/1/1] (antibody)
heavy: QVQLQQSGPGLVKPSQTLSLTCAISGDSVSSNSATWNWIRQSPSRDLEWLGRTYYRSKWYRDYVGSVKSRIIINPDTSNNQFSLQLNSVTPEDTAIYYCTRAQWLGGDYPYYYSMDVWGQGTTVTVSS
VL: EIVLTQSPATLSLSPGERATLSCRASQSVSSYLAWYQQKPGQAPRLLIYDASNRATGIPARFSGSGSGTDFTLTISSLEPEDFAVYYCQQRSNTFGPGTKVDIK
notes: also called IgG[2/2/1/1]; N5KG2211; not shown: human IgG2 heavy chain constant region, CH1 and hinge domains (EU 118-237), from vector N5KG2; human IgG1 heavy chain constant region, CH2 and CH3 domains (EU 238-446), from vector N5KG1
Take B3: the binding result is reported as “binds”.

B4: 341-G2Ser[Q274K] (antibody, human IgG2, kappa)
heavy: QVQLQQSGPGLVKPSQTLSLTCAISGDSVSSNSATWNWIRQSPSRDLEWLGRTYYRSKWYRDYVGSVKSRIIINPDTSNNQFSLQLNSVTPEDTAIYYCTRAQWLGGDYPYYYSMDVWGQGTTVTVSSASTKGPSVFPLAPCSRSTSESTAALGCLVKDYFPEPVTVSWNSGALTSGVHTFPAVLQSSGLYSLSSVVTVPSSNFGTQTYTCNVDHKPSNTKVDKTVERKCCVECPPCPAPPVAGPSVFLFPPKPKDTLMISRTPEVTCVVVDVSHEDPEVKFNWYVDGVEVHNAKTKPREEQFNSTFRVVSVLTVVHQDWLNGKEYKCKVSNKGLPASIEKTISKTKGQPREPQVYTLPPSREEMTKNQVSLTCLVKGFYPSDIAVEWESNGQPENNYKTTPPMLDSDGSFFLYSKLTVDKSRWQQGNVFSCSVMHEALHNHYTQKSLSLSPGK
light: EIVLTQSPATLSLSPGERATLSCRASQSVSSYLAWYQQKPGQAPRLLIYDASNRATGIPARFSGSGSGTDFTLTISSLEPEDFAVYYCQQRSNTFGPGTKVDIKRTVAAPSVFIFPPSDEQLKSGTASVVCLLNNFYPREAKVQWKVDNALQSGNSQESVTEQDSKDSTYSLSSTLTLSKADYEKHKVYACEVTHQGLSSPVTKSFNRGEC
notes: Made from the 341-G2Ser expression vector; also called N5KG2Ser-341-Q274K
Turning to B4, the binding result was “binds”.

B5: 341-G2Ser[F296Y] (antibody, human IgG2, kappa)
heavy: QVQLQQSGPGLVKPSQTLSLTCAISGDSVSSNSATWNWIRQSPSRDLEWLGRTYYRSKWYRDYVGSVKSRIIINPDTSNNQFSLQLNSVTPEDTAIYYCTRAQWLGGDYPYYYSMDVWGQGTTVTVSSASTKGPSVFPLAPCSRSTSESTAALGCLVKDYFPEPVTVSWNSGALTSGVHTFPAVLQSSGLYSLSSVVTVPSSNFGTQTYTCNVDHKPSNTKVDKTVERKCCVECPPCPAPPVAGPSVFLFPPKPKDTLMISRTPEVTCVVVDVSHEDPEVQFNWYVDGVEVHNAKTKPREEQYNSTFRVVSVLTVVHQDWLNGKEYKCKVSNKGLPASIEKTISKTKGQPREPQVYTLPPSREEMTKNQVSLTCLVKGFYPSDIAVEWESNGQPENNYKTTPPMLDSDGSFFLYSKLTVDKSRWQQGNVFSCSVMHEALHNHYTQKSLSLSPGK
light: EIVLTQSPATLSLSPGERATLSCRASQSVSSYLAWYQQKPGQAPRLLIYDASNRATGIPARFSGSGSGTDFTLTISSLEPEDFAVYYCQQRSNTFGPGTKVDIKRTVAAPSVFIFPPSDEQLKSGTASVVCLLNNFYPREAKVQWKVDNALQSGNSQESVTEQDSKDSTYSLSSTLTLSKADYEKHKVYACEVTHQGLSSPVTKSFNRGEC
notes: Made from the 341-G2Ser expression vector; also called N5KG2Ser-341-F296Y
Regarding B5, the binding result is recorded as “binds”.

B6: 341-G2Ser[T339A] (antibody, human IgG2, kappa)
heavy: QVQLQQSGPGLVKPSQTLSLTCAISGDSVSSNSATWNWIRQSPSRDLEWLGRTYYRSKWYRDYVGSVKSRIIINPDTSNNQFSLQLNSVTPEDTAIYYCTRAQWLGGDYPYYYSMDVWGQGTTVTVSSASTKGPSVFPLAPCSRSTSESTAALGCLVKDYFPEPVTVSWNSGALTSGVHTFPAVLQSSGLYSLSSVVTVPSSNFGTQTYTCNVDHKPSNTKVDKTVERKCCVECPPCPAPPVAGPSVFLFPPKPKDTLMISRTPEVTCVVVDVSHEDPEVQFNWYVDGVEVHNAKTKPREEQFNSTFRVVSVLTVVHQDWLNGKEYKCKVSNKGLPASIEKTISKAKGQPREPQVYTLPPSREEMTKNQVSLTCLVKGFYPSDIAVEWESNGQPENNYKTTPPMLDSDGSFFLYSKLTVDKSRWQQGNVFSCSVMHEALHNHYTQKSLSLSPGK
light: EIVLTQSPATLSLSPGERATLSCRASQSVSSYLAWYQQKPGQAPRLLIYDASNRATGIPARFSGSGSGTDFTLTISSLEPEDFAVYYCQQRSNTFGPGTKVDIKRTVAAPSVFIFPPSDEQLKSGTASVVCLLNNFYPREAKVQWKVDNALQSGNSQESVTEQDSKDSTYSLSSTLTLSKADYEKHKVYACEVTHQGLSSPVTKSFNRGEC
notes: Made from the 341-G2Ser expression vector; also called N5KG2Ser-341-T339A
With B6, the binding result was “binds”.

B7: 341-G2Ser[V309L] (antibody, human IgG2, kappa)
heavy: QVQLQQSGPGLVKPSQTLSLTCAISGDSVSSNSATWNWIRQSPSRDLEWLGRTYYRSKWYRDYVGSVKSRIIINPDTSNNQFSLQLNSVTPEDTAIYYCTRAQWLGGDYPYYYSMDVWGQGTTVTVSSASTKGPSVFPLAPCSRSTSESTAALGCLVKDYFPEPVTVSWNSGALTSGVHTFPAVLQSSGLYSLSSVVTVPSSNFGTQTYTCNVDHKPSNTKVDKTVERKCCVECPPCPAPPVAGPSVFLFPPKPKDTLMISRTPEVTCVVVDVSHEDPEVQFNWYVDGVEVHNAKTKPREEQFNSTFRVVSVLTVLHQDWLNGKEYKCKVSNKGLPASIEKTISKTKGQPREPQVYTLPPSREEMTKNQVSLTCLVKGFYPSDIAVEWESNGQPENNYKTTPPMLDSDGSFFLYSKLTVDKSRWQQGNVFSCSVMHEALHNHYTQKSLSLSPGK
light: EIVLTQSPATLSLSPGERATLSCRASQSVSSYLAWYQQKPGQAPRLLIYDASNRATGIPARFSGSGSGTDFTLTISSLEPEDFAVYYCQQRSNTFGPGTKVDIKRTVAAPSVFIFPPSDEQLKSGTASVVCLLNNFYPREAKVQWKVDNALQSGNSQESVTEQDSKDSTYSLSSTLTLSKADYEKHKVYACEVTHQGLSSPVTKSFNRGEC
notes: Made from the 341-G2Ser expression vector; also called N5KG2Ser-341-V309L
B7: the binding result was “binds”.

B8: 341-G2Ser[F300Y] (antibody, human IgG2, kappa)
heavy: QVQLQQSGPGLVKPSQTLSLTCAISGDSVSSNSATWNWIRQSPSRDLEWLGRTYYRSKWYRDYVGSVKSRIIINPDTSNNQFSLQLNSVTPEDTAIYYCTRAQWLGGDYPYYYSMDVWGQGTTVTVSSASTKGPSVFPLAPCSRSTSESTAALGCLVKDYFPEPVTVSWNSGALTSGVHTFPAVLQSSGLYSLSSVVTVPSSNFGTQTYTCNVDHKPSNTKVDKTVERKCCVECPPCPAPPVAGPSVFLFPPKPKDTLMISRTPEVTCVVVDVSHEDPEVQFNWYVDGVEVHNAKTKPREEQFNSTYRVVSVLTVVHQDWLNGKEYKCKVSNKGLPASIEKTISKTKGQPREPQVYTLPPSREEMTKNQVSLTCLVKGFYPSDIAVEWESNGQPENNYKTTPPMLDSDGSFFLYSKLTVDKSRWQQGNVFSCSVMHEALHNHYTQKSLSLSPGK
light: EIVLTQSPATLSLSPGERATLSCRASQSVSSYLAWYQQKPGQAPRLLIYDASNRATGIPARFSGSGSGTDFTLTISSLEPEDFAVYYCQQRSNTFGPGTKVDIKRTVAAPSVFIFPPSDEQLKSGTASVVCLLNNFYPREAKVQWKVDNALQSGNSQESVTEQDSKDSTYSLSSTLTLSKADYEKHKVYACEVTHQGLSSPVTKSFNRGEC
notes: Made from the 341-G2Ser expression vector; also called N5KG2Ser-341-F300Y
Take B8: the binding result is given as “binds”.

B9: 341-G2Ser[G327A] (antibody, human IgG2, kappa)
heavy: QVQLQQSGPGLVKPSQTLSLTCAISGDSVSSNSATWNWIRQSPSRDLEWLGRTYYRSKWYRDYVGSVKSRIIINPDTSNNQFSLQLNSVTPEDTAIYYCTRAQWLGGDYPYYYSMDVWGQGTTVTVSSASTKGPSVFPLAPCSRSTSESTAALGCLVKDYFPEPVTVSWNSGALTSGVHTFPAVLQSSGLYSLSSVVTVPSSNFGTQTYTCNVDHKPSNTKVDKTVERKCCVECPPCPAPPVAGPSVFLFPPKPKDTLMISRTPEVTCVVVDVSHEDPEVQFNWYVDGVEVHNAKTKPREEQFNSTFRVVSVLTVVHQDWLNGKEYKCKVSNKALPASIEKTISKTKGQPREPQVYTLPPSREEMTKNQVSLTCLVKGFYPSDIAVEWESNGQPENNYKTTPPMLDSDGSFFLYSKLTVDKSRWQQGNVFSCSVMHEALHNHYTQKSLSLSPGK
light: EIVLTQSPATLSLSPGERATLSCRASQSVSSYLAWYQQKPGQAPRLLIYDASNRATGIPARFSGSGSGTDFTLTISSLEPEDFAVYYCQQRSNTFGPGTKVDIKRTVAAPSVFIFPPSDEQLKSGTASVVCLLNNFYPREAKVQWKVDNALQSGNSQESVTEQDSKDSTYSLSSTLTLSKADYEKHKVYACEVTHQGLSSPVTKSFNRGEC
notes: Made from the 341-G2Ser expression vector; also called N5KG2Ser-341-G327A
Consider B9, for which the binding result is “binds”.
